For this experiment, the target named is Human factor XIa (human), P03951. The experiment in a line: enzyme inhibition assay. Conditions: remark: other sources report otherwise.

Numbered stars: 1 amine (or outer) side, 2 acyl side, 3 side chain; on linkers, the order of the positions; unused ones are H or OH. Bridge positions count the residues as written; N and C are the ends. Ends that are not written are not given here. TBMB = c1c(C[*:1])cc(C[*:3])cc1C[*:2]

B1: 2A10 (peptide)
peptide: ACTYPYKCLHQNLCA
modifications: linker 2-8-14 via TBMB
For orientation: Ki means a dissociation constant, usually derived from enzyme kinetics or from competition with a known ligand. In the case of B1, the Ki was 75 µM.

The values are drawn from patent publication US10800813.
